From the nanobody polyreactivity screen of Harvey et al. (2022) come the findings set out here.

The data set is described as follows: yeast display, Sf9 membrane polyspecificity reagent, FACS + sequencing; frameworks hold sequencing errors. The essentials:
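Polyreactivity labels are assigned by the sorting gate from which each nanobody was recovered. The gates were low and high (top ~1%), set on anti-HA fluorescence for expression and streptavidin fluorescence for reagent binding. Before sorting, galactose-induced (36–48 hours) yeast display cells were stained for 1 hour at 4 °C with 10% biotinylated, detergent-solubilized Sf9 membrane reagent.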
Regarding “QVQLVESGGGLVQAGGSLRLSCAASGSTFRPYAMGWYREAPGKERELVAAITSTGGSTYYADSVKGRFTISRDNAKNSVSLQMNSLKPDDTAVYYCAAPLVRYAGPYDYWGQGTQVTVSS”, the “polyreactivity (PSR sort gate)” value is listed as “low polyreactivity”.

With “QVQLVESGGGLVQAGGSLRLSCAASGSTFRPYAMGWYRQAPGKERELLAAISSGDTTDYADSVKGRFTISRDNAKNTVYLQMNSLKPEDNAVYYCATVFNDLTVYEYWSRFDYWGPGTQVTVSS”, the “polyreactivity (PSR sort gate)” value is given as “low polyreactivity”.

Turning to “QVQLVESGGGLVQAGGSLRLSCAASGSTFRPYAMGWYRQAPGKERELVAAITSTGGSTYYADSVKGRFTISRDNAKNTVYLQMNSLKPEDTAVYYCAAPLVRYAGPYDYWGQGTQVTVSS”, the “polyreactivity (PSR sort gate)” value was “low polyreactivity”.

Turning to “QVQLVESGGGLVQAGGSLRLSCAASGSTFRQYAMGWYRQAPGKERELVAAIRGRDGSTYYADSVKGRFTISRDNAKNTVYLQMNSLKPEDTAVYYCNVVARGVSPGYDYWGQGTQVTVSS”, the “polyreactivity (PSR sort gate)” value was “high polyreactivity”.

On to “QVQLVESGGGLVQAGGSLRLSCAASGSTFRQYAMGWYRQAPGKERELVAAISSGGRTNYADSVKGRFTISRDNAKNTVYLQMNSLKPEDTAVYYCASDIRRRVPVRGYYYWGQGTQVTVSS”, for which the “polyreactivity (PSR sort gate)” value is on record as “high polyreactivity”.

As to “QVQLVESGGGLVQAGGSLRLSCAASGSTFRRYAMGWYRQAPGKERELVAAIRQRGTSTYYADSVKGRFTISRDNAKNTVYLQMNSLKPEDTAVYYCAAGPSLWLFNSWGQGTQVTVSS”, the “polyreactivity (PSR sort gate)” value was “high polyreactivity”.

“QVQLVESGGGLVQAGGSLRLSCAASGSTFRRYAMGWYRQAPGKERELVAAITSTDVNTYYADSVKGRFTISRDNAKNTVYLQMNSLKPEDTAVYYCAAVYLGYYGVSDMEYWGQGTQVTVSS”: the “polyreactivity (PSR sort gate)” value is on record as “high polyreactivity”.

“QVQLVESGGGLVQAGGSLRLSCAASGSTFRRYAMGWYRQAPGKERELVAAITTRGGSTYYADSVKGRFTISRDNAKNSVYLQMNSLKPEDTAVYYCARDYSTYLRTAGDYWGQGTQVTVSS”: the “polyreactivity (PSR sort gate)” value was “low polyreactivity”.

Regarding “QVQLVESGGGLVQAGGSLRLSCAASGSTFRRYAMGWYRQAPGKERELVAGISKRGVSTYYADSVKGRFTISRDNAKNTVYLQMNSLKPEDTAVYYCAAEWTVSKYDYWGQGTQVTVSS”, the “polyreactivity (PSR sort gate)” value is given as “low polyreactivity”.

With “QVQLVESGGGLVQAGGSLRLSCAASGSTFRRYAMGWYRQAPGKEREMVAGITYGSTYYADSVKGRFTISRDNAKNTVYLLMNSLKPEDTAVYYCAADLSYTSVHGYRSDTLMDYWGQGTQVTVSS”, the “polyreactivity (PSR sort gate)” value is given as “low polyreactivity”.

For the sequence “QVQLVESGGGLVQAGGSLRLSCAASGSTFRSNAMGWYRQAPGKERELVAGISRRGGSTYYADSVTGRVTISRDNAKNTVYLQMNSLKPEDTAVDYCAASSRSFIRVYYWGQGTQVTVSS”, the “polyreactivity (PSR sort gate)” value is “high polyreactivity”.

Turning to “QVQLVESGGGLVQAGGSLRLSCAASGSTFRSYAMGWYRQAPGKERELVAVISKRGGSTYYADSVKGRFTISRDNAKNTVYLQMNSLKPEDTAVYYCAARPGPYWTVTFRSPKYYYWGQGTQVTVSS”, the “polyreactivity (PSR sort gate)” value is listed as “high polyreactivity”.

Consider “QVQLVESGGGLVQAGGSLRLSCAASGSTFRSYAMGWYRQAPGKERESVARISYRTGSTYYADSVKGRFTISRDNAKNTVYLQMNSLEPEDTAVYYCATRGSYVGGLYDYWGQGTQVTVSS”, for which the “polyreactivity (PSR sort gate)” value is reported as “high polyreactivity”.

For the sequence “QVQLVESGGGLVQAGGSLRLSCAASGSTFRSYAMGWYRQSPGKERELVAAISTRGGSTYYADSVKGRFTISRDNAKNTVYLQMNSLKPEDTAVYYCAVEIVWAYGPTDYYYWGQGTQVTVSS”, the “polyreactivity (PSR sort gate)” value is on record as “high polyreactivity”.

Regarding “QVQLVESGGGLVQAGGSLRLSCAASGSTFRSYDMGWYRQAPGKERELVAASSSGGSTNYADSVKGRFTISRDNAKNTVYLQMNSLKPEDTAVYYCNAEYPYYWFKYDYWGQGTQVTVSS”, the “polyreactivity (PSR sort gate)” value was “low polyreactivity”.

For the sequence “QVQLVESGGGLVQAGGSLRLSCAASGSTFRSYNMGWYRQAPGKERELVADINGTGGSTYYADSVKGRFTISRDNAKNTVYLQMNSLKPEDTAVYYCAADGYFRTVTSGWALRMGYWGQGTQVTVSS”, the “polyreactivity (PSR sort gate)” value is reported as “high polyreactivity”.

Consider “QVQLVESGGGLVQAGGSLRLSCAASGSTFRTNAMGWYRQAPGKERELVAAISGSGSRTYYADSVKGRFTISRDNAKNTVYLQMNSLKPEDTAVYYCAAVYGGVGYRRREYWGQGTQVTVSS”, for which the “polyreactivity (PSR sort gate)” value is listed as “high polyreactivity”.

With “QVQLVESGGGLVQAGGSLRLSCAASGSTFRTNAMGWYRQAPGKERELVAAITYRAGNTYYADSVKGRFTISRDNAKNTVYLQMNSLKPEDTAVYYCNAESLSFPARGRAYRYYYWGQGTQVTVSS”, the “polyreactivity (PSR sort gate)” value was “high polyreactivity”.

Take “QVQLVESGGGLVQAGGSLRLSCAASGSTFRTYAIGWYRQAPAKERELVAAISRSGGRTYYADSVKGRFTISRDNAMNTVYLQMNSLKPEDTAVYYCAVGDTYTYDYWGQGTQVTVSS”: the “polyreactivity (PSR sort gate)” value was “high polyreactivity”.

“QVQLVESGGGLVQAGGSLRLSCAASGSTFRTYTMGWYRQAPGKERELVAAGGGTYYADSVKGRFTISRDNAKNTVYLQMNSLKPEDTAVYYCAAGLPIHGLRGYEYDYWGQGTQVTVSS”: the “polyreactivity (PSR sort gate)” value is listed as “low polyreactivity”.

On to “QVQLVESGGGLVQAGGSLRLSCAASGSTFRVNAMAWYRHAPGKERELVADITNGGSTYYADSVKGRFTISRDNAKNTVYLQMNSLKPEDTAVYYCNARPSYLRFKWYSYDYWGQGTQVTVSS”, for which the “polyreactivity (PSR sort gate)” value is listed as “high polyreactivity”.

Regarding “QVQLVESGGGLVQAGGSLRLSCAASGSTFRVNAMGWYRQAPGKERELVAAIRKSGGSTYADSVKGRFTISRDNAKNTVYLQMNSLKPEDTAVYYCNADATAWLGWDDNYWGQGSQVTVSS”, the “polyreactivity (PSR sort gate)” value is reported as “low polyreactivity”.

For the sequence “QVQLVESGGGLVQAGGSLRLSCAASGSTFRVNAMGWYRQAPGKERELVAAIRSSGGTTYYADSVQGRFTISRDNAKNTVYLQMNSLKPEDTAVYYCAAEGYRSWRGLRSRYYYWGQGTQVTVSS”, the “polyreactivity (PSR sort gate)” value is listed as “high polyreactivity”.

For the sequence “QVQLVESGGGLVQAGGSLRLSCAASGSTFRVYAMGWYRQAPGKERELVATISWGGGRTYYADSVKGRFTISRDNAKNTVYLQMNSLKPEDTAVYYCAADQRWTTDQPTAGDYWGQGTQVTVSS”, the “polyreactivity (PSR sort gate)” value is given as “low polyreactivity”.

In the case of “QVQLVESGGGLVQAGGSLRLSCAASGSTFRVYGMGWYRQAPGKERELDAAIRWIGGRTYYADSVKGRFTISRDNAKNTVYLQMNSLKAEDTAVYYCNARAGPVRFDYWGQGTQVTVSS”, the “polyreactivity (PSR sort gate)” value is on record as “low polyreactivity”.

With “QVQLVESGGGLVQAGGSLRLSCAASGSTFRWNAMGWYRQAPGKERELVAAISGNGGSTYYADSVKGRFTISRDNAKNTVYLHMNTLKPEYNAVYYCAARGYFCSSYKYDYRGQGTQVTVSS”, the “polyreactivity (PSR sort gate)” value was “high polyreactivity”.

With “QVQLVESGGGLVQAGGSLRLSCAASGSTFRWNAMGWYRQAPGKERELVASITSGGSTNYADSVKGRFTISRDNAKNTVYLQMNSLKPEDTAVYYCNADVRRSTYYVWLYDYWGQGTQVTVSS”, the “polyreactivity (PSR sort gate)” value is “low polyreactivity”.

In the case of “QVQLVESGGGLVQAGGSLRLSCAASGSTFRWNAMGWYRQAPWKERELVAAITWSGGRTYYADSVKGRFTISRDNAKNTVYLQMNSLKPEDTAVYYCAAVRGPEHWYDYYYWGQGTQVTVSS”, the “polyreactivity (PSR sort gate)” value was “high polyreactivity”.

“QVQLVESGGGLVQAGGSLRLSCAASGSTFRWYAMGWYRQAPGKERELVAAISWSGSTTYYADSVKGRFTISRDNAKNTVYLQMNSLKPEDTAVYYCAAEVVFFGWNYDYWGQGTQVTVSS”: the “polyreactivity (PSR sort gate)” value is recorded as “high polyreactivity”.

With “QVQLVESGGGLVQAGGSLRLSCAASGSTFRWYTMGWYRQAPGKERELVAAITASGGSTFYADSVKGRFTISRDNAKNTVYLQMNSLKPEDTAVYYCAAVNRPRPRRSDYWGQGTQVTVSS”, the “polyreactivity (PSR sort gate)” value is on record as “high polyreactivity”.

For “QVQLVESGGGLVQAGGSLRLSCAASGSTFRYAMGWYRQAPGKERELVATISSGGSTNYADSVKGRFTISRDNAKNTVYLQMNSLKPEDTAVYYCAADPYGGDNDKGDYWGQGTQVTVSS”, the “polyreactivity (PSR sort gate)” value is reported as “low polyreactivity”.

Take “QVQLVESGGGLVQAGGSLRLSCAASGSTFRYNALGWYRQAPGKERELVAAINYRGGSTYYADSVKGRFTISRDNAKNTVYLQMNSLKPEDTAVYYCNAVLPLAKYEYDSWGHGTQVTVSS”: the “polyreactivity (PSR sort gate)” value is “high polyreactivity”.

In the case of “QVQLVESGGGLVQAGGSLRLSCAASGSTFRYNAMGWYRQAPGKERELVATITGSGGSTYYADSVKGRFTISRDNAKNTVYLQMNSLKPEDTAVYYCAAAYRGRYSWYYFPRYAYWGQGTQVTVSS”, the “polyreactivity (PSR sort gate)” value was “high polyreactivity”.

With “QVQLVESGGGLVQAGGSLRLSCAASGSTFRYNAMGWYRQAPWKERELVAAITSGGSTYYADSVKGRFTISRDNAKNTVYLQMNSLKPEDTAVYYCAALWQSRWYKMDYWGQGTQVTVSS”, the “polyreactivity (PSR sort gate)” value is on record as “high polyreactivity”.

With “QVQLVESGGGLVQAGGSLRLSCAASGSTFRYNSMGWYRQAPGKDRELVAAISRIGGTTYADSVKGRFTISRDNAKNTVYLQMNSLNPEDTAVYYCARANWGYYGPEYGYWGQGTQVTVSS”, the “polyreactivity (PSR sort gate)” value is recorded as “high polyreactivity”.

Turning to “QVQLVESGGGLVQAGGSLRLSCAASGSTFRYNTMGWDRQAPGKERELVAAISGGGGSTYYADSVKGRFTISRDNAKNTVYLQMNSLKPEDTAVYYCAKRHWYAGYVSSYTTRYDYWGQGTQVTVSS”, the “polyreactivity (PSR sort gate)” value is recorded as “low polyreactivity”.

Regarding “QVQLVESGGGLVQAGGSLRLSCAASGSTFRYNTMGWYRQAPGKERELVAAISSGGGTHFADSVKGRFTISRDNAKNTVYLQMNSLKPEDTAVYYCAAQSRYRYQFYSGLEYDYWGQGTQVTVSS”, the “polyreactivity (PSR sort gate)” value was “low polyreactivity”.

Take “QVQLVESGGGLVQAGGSLRLSCAASGSTFRYYAMGWYRQAPGKERELVAAISGTGSTYYADSVKGRFTISRDNAKNTVSLQMNSLKPEDTAVYYCGAYPRGSQRYNYWGQGTQVTVSS”: the “polyreactivity (PSR sort gate)” value was “high polyreactivity”.

For the sequence “QVQLVESGGGLVQAGGSLRLSCAASGSTFRYYAMGWYRQAPGKERELVAAISSSGGRTYYADSVKGRFTISRDNAKNTVYLQMNSLKPEDTAVYYCAALYLRYHYGTDFDYWGQGTKVTVSS”, the “polyreactivity (PSR sort gate)” value is recorded as “high polyreactivity”.

In the case of “QVQLVESGGGLVQAGGSLRLSCAASGSTFRYYAMGWYRQAPGKERELVAAITYRGSSTYYADSVKGRFTISRDNAKNTVYLQMNSLKPEDTAVYYCARRYAGDYYYWGQGTQVTVSS”, the “polyreactivity (PSR sort gate)” value is “high polyreactivity”.
